# Laboratory results as given in patent US20160228506A1, “Compositions and Formulations for Prevention and Reduction of Tumorigenesis, Cancer Cell Proliferation and Invasion, and Methods of Production and Use Thereof in Cancer Treatment” (PRONUTRIA, INC., priority 2013, published 2016).
# B1: SEQID-00363 (E. coli): SEQID-00363 expressed recombinantly in E. coli (protein)
# chain: ATLDSWLSNEATVARTAILNNIGADGAWVSGADSGIVVASPSTDNPDYFYTWTRDSGLVLKTLVDLFRNGDTSLLSTIENYISAQAIVQGISNPSGDLSSGAGLGEPKFNVDETAYTGSWGRPQRDGPALRATAMIGFGQWLLDNGYTSTATDIVWPLVRNDLSYVAQYWNQTGYDLWEEVNGSSFFTIAVQHRALVEGSAFATAVGSSCSWCDSQAPEILCYLQSFWTGSFILANFDSSRSGKDANTLLGSIHTFDPEAACDDSTFQPCSPRALANHKEVVDSFRSIYTLNDGLSDSEAVAVGRYPEDTYYNGNPWFLCTLAAAEQLYDALYQWDKQGSLEVTDVSLDFFKALYSDAATGTYSSSSSTYSSIVDAVKTFADGFVSIVETHAASNGSMSEQYDKSDGEQLSARDLTWSYAALLTANNRRNSVVPASWGETSASSVPGTCAATSAIGTYSSVTVTSWPSIVATGGTTTTATPTGSGSVTSTSKTTATASKTSTSTSSTSCTTPTAVAVTFDLTATTTYGENIYLVGSISQLGDWETSDGIALSADKYTSSDPLWYVTVTLPAGESFEYKFIRIESDDSVEWESDPNREYTVPQACGTSTATVTDTWR
# modifications: Aspergillus niger
# B2: SEQID-00356: nutritive polypeptide (protein)
# chain: MATAAEKLSALKSAVAGLNEISENEKNGFISLVGRYLSGEAQHVEWSKIQTPTDEVVVPYDTLAPTPEGSSEVKNLLDKLVVLKLNGGLGTTMGCTGPKSVIEVRDGLTFLDLIVIQIENLNSKYGSNVPLLLMNSFNTHDDTQKIVEKYQNSNIEIHTFNQSQYPRLVVEDFLPLPSKGHTDKDGWYPPGHGDVFPSLLNSGKLDALLSQGKEYVFVANSDNLGAIVDLKILNHLIQNKNEYCMEVTPKTLADVKGGTLISYEGRVQLLEIAQVPDEHVNEFKSIEKFKIFNTNNLWVNLNAVKRLVEADALKMEIIPNPKEVDGIKVLQLETAAGAAIRFFDKAIGINVPRSRFLPVKATSDLLLVQSDLYTLEDGFVIRNKARENPENPSIELGPEFKKVSNFLGRFKSIPSIVELDSLKVAGDVWFGAGVILKGKVSIVSKPGVKLEVPDGVAIVDKEINGPEDL
# modifications: Glycine max
# B3: SEQID-00354: nutritive polypeptide (protein)
# chain: MSLSNKLTLDKLDVKGKRVVMRVDFNVPMKNNQITNNQRIKAAVPSIKYCLDSGAKSVVLMSHLGRPDGVPMPDKYSLQPVAVELKSLLGKDVLFLKDCVGPEVEKACADPAAGSVILLENLRFHVEEEGKGKDASGNKVKAEPTKIEAFRASLSKLGDVYVNDAFGTAHRAHSSMVGVNLPKKAGGFLMKKELNYFAKALESPERPFLAILGGAKVADKIQLISNMLDKVNEMIIGGGMAFTFLKVLNNMEIGTSLFDEEGSKIVKDLMSKADKNGVKITLPVDFVTADKFDENAKTGQATVASGIPVGWMGLDCGPESSKKYAEAVARAKQIVWNGPVGVFEWEAFARGTKALMDEVVKATSRGCITIIGGGDTATCCAKWNTEDKVSHVSTGGGASLELLEGKVLPGVDALSSV
# modifications: Ovis aries
# B4: SEQID-00407 (BS): α-amylase in Bacillus subtilis; Wild-type of Tables E37A and E38E (protein, listed as Bacillus subtilis)
# chain: ETANKSNELTAPSIKSGTILHAWNWSFNTLKHNMKDIHDAGYTAIQTSPINQVKEGNQGDKSMSNWYWLYQPTSYQIGNRYLGTEQEFKEMCAAAEEYGIKVIVDAVINHTTSDYAAISNEVKSIPNWTHGNTQIKNWSDRWDVTQNSLLGLYDWNTQNTQVQSYLKRFLDRALNDGADGFRFDAAKHIELPDDGSYGSQFWPNITNTSAEFQYGEILQDSASRDAAYANYMDVTASNYGHSIRSALKNRNLGVSNISHYASDVSADKLVTWVESHDTYANDDEESTWMSDDDIRLGWAVIASRSGSTPLFFSRPEGGGNGVRFPGKSQIGDRGSALFEDQAITAVNRFHNVMAGQPEELSNPNGNNQIFMNQRGSHGVVLANAGSSSVSINTATKLPDGRYDNKAGAGSFQVNDGKLTGTINARSVAVLYPDDIAKAPHVFLENYKTGVTHSFNDQLTITLRADANTTKAVYQINNGPETAFKDGDQFTIGKGDPFGKTYTIMLKGTNSDGVTRTEKYSFVKRDPASAKTIGYQNPNHWSQVNAYIYKHDGSRVIELTGSWPGKPMTKNADGIYTLTLPADTDTTNAKVIFNNGSAQVPGQNQPGFDYVLNGLYNDSGLSGSLPH
# modifications: source: /note="strain 168"
# B5: SEQID-00359: nutritive polypeptide naturally produced in Sheep, recombinantly expressed in E. coli (protein)
# chain: MLELGSQRNRAKNNHIGDLMSQSFESLGISEQRARHLETLGFTEPTPVQIQAIPEMLSGRDVVGMAQTGTGKTAAFSLPILEQIDVHAAGIQALVLTPTRELAMQVKEAIRTFSDDNALYVLTVYGGQSIDRQIQRLRRGVQVVVGTPGRILDLLNRGELKLDLLRWLVLDEADEMLSMGFIQDVEKILESADSEHRQTAFFSATMDASISKLVRRHLKSPVTVKVETPKATPKRIEQSVYMVPRGWSKARALEPILELEDPESAIIFVRTKQSAADLTNQLQAAGHSVDEYHGNLNQSQRERLLMRLRRRQVRWIVATDIAARGLDVDHLTHVINYDLPDQVDSYVHRIGRTGRAGREGKAITLIQPIDRRKLRNIERHLRQTLSIQSIPKRAEIEARYIDRLKDRVRDALAGERMASFLPIVSQLSEEYDPHAIAAAALQLAYDQTRPASIGRDDYEDDDDAVSNKPKLIKRRRPASVSNNS
# modifications: Arthrospira platensis NIES-39
# B6: SEQID-00357: nutritive polypeptide (protein)
# chain: MKPLNRRTKIVATIGPASNSREVLYQMIQAGMNVVRLNFSHGSHEQHTKTVALLKEISQELKTSITLLQDLQGPKIRVGQLPDGGIQLMAGEYITLVPIDQYESKPNTIAIDYLHLGEEAEIGAQVLLDDGLLELKVEEISGNQVKCKIIEGGTLKSRKGVNLPSLTLRLPSLTEKDQQDLEFGISLGVDWVSLSFVRNAEDVRVLKDFLASKNASQISVMAKIEKPQAIANLEEIISECNGLMVARGDLGVEMSPERVPLLQKQIIRLCNQKGIPVITATQMLDSMINNPRPTRAEASDVANAIIDGTDAVMLSGESAVGKYPIRAVEMLAKIAEDVEPEINFINYPPAFNDETHAISEAINTIDKIIDLHCIIAYTCSGYTGQLAAAERPKAPVVALTPNPKVYHRLNLVWGVKPLLLEQEVESFEELINQAQTYLLVRQMASPGDKILIIGGIPSGKAKGTNFIKIHTIG
# modifications: Arthrospira platensis NIES-39
# B7: SEQID-00001 (HEK293): nutritive polypeptide (protein, listed as Gallus gallus)
# chain: MGSIGAASMEFCFDVFKELKVHHANENIFYCPIAIMSALAMVYLGAKDSTRTQINKVVRFDKLPGFGDSIEAQCGTSVNVHSSLRDILNQITKPNDVYSFSLASRLYAEERYPILPEYLQCVKELYRGGLEPINFQTAADQARELINSWVESQTNGIIRNVLQPSSVDSQTAMVLVNAIVFKGLWEKAFKDEDTQAMPFRVTEQESKPVQMMYQIGLFRVASMASEKMKILELPFASGTMSMLVLLPDEVSGLEQLESIINFEKLTEWTSSNVMEERKIKVYLPRMKMEEKYNLTSVLMAMGITDVFSSSANLSGISSAESLKISQAVHAAHAEINEAGREVVGSAEAGVDAASVSEEFRADHPFLFCIKHIATNAVLFFGRCVSP
# modifications: expressed in HEK293
# Assay: Intact half-life during simulated gastric fluid (SGF) digestion
# Conditions: SGF pH 1.5, pepsin:polypeptide 1:20 w/w, 37° C.; intact protein
# Procedure: In this experiment the nutritive polypeptide was exposed to a series of proteases that are active in the stomach (pepsin) and intestine (trypsin and chymotrypsin), and the presence of intact protein was measured over time. Specifically, the nutritive polypeptide was first treated at a concentration of 2 g/L with simulated gastric fluid (SGF) (0.03 M NaCl, titrated with HCl to pH 1.5 with a final pepsin:polypeptide ratio of 1:20 w/w) at 37° C. Time points were sampled from the reaction and quenched by addition of 0.2 M Na2CO3. […] Time points were sampled from the reaction and quenched by addition of Trypsin/Chymotrypsin Inhibitor (Sigma) solution until 240 min.
# Time point samples were analyzed for intact protein by chip electrophoresis, polyacrylamide gel electrophoresis, or western blot. For chip electrophoresis (Labchip GX II), samples were analyzed using a HT Low MW Protein Express LabChip® Kit (following the manufacturer's protocol). A protein ladder was loaded every 12 samples for molecular weight determination (kDa) and quantification. For polyacrylamide gel electrophoresis, samples (1 μg) were separated on a NuPAGE® Novex® Bis-Tris Precast gel (Life Technologies) according to the manufacturer's protocol. The gel was stained using SimplyBlue™ SafeStain (Invitrogen) and imaged using a Chemidoc XRS+ (BioRad) or transferred onto nitrocellulose membranes using the iBlot® Dry Blotting System (Life Technologies) and iBlot® Western Detection Kit (Life Technologies) according to the manufacturer's protocol. Proteins were detected by blotting with Anti-His [C-term]-HRP antibody diluted 3:5000 in Blok™-PO Blocking Buffer using the SNAP I.d.® Protein Detection System (Millipore) according to the manufacturer's protocol. Blots were treated with Luminata Classico Western HRP Substrate (Millipore) according to the manufacturer's protocol and imaged using chemiluminescent detection on the Molecular Imager® Gel Doc™ XR+ System (Bio-Rad). Quantification of intact protein was determined by densitometry using ImageLab (BioRad). For all analysis methods the relative concentration of the polypeptide at each time point (if detected) was plotted overtime and fit to an exponential curve to calculate the intact half-life.
# Specifically, the t=0 (enzyme-free control) and t=2 min samples from the SGF digest were analyzed for intact protein as described by chip electrophoresis, SDS-PAGE, western blot, and/or LC-MS/MS. Relative quantities of polypeptides at each time point were determined and the percentage of intact protein remaining at t=2 was determined. Intact half-life values determined using this method are reported as greater or less than 2 min to indicate more or less than 50% of the protein remained intact at t=2 min, respectively.
row,Molecule,SGF Half-life (t½) [s]
1,B1,<600
2,B2,12
3,B3,12
4,B4,12
5,B5,12
6,B6,12
7,B7,516
